Reference: patent US20110250165A1 (Dana-Farber, published 2011)

T1: CXCR2 (UniProt P25025 1-360, limits assumed)
T1 construct: whole, on cells; also called 2222
T1 sequence (looked up): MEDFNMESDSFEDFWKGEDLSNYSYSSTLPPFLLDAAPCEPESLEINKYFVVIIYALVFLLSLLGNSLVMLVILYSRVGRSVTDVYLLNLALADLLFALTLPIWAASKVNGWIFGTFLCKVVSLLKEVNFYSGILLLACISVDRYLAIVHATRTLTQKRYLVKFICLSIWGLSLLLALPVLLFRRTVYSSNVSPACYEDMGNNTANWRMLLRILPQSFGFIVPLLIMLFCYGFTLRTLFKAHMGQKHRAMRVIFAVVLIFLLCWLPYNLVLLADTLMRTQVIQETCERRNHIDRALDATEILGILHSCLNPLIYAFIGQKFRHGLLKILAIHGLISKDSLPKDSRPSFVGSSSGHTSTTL


Experiments:
[1] = target: T2, human CXCR4 (wild type) (human, UniProt P61073 1-352); assay: flow cytometry, scFv-Fc on transfected 293T cells, FITC anti-human IgG
T2 construct: whole, on cells; also called wtCXCR4
Description: (§1) Epitope mapping experiments were performed to determine the binding sites for the anti-CXCR4 antibodies of the invention. (See Example 5. infra). […] Analysis was performed using a flow cytometer. Binding activity was measured by MFI on total cells gated. The following formula was used to calculate the reactivity:reactivity to each clone=(MFI of chimeric receptor/MFI of wild type CXCR4)×100%.
(§2) Thirty six hours after transfection, the cells were harvested. […] The cells were then washed two times with 0.5% BSA/PBS/0.02% NaN3.
(§3) Next, FITC-labeled secondary antibodies were added to the cells and were allowed to incubate at 4° C. for 30 minutes. The cells were then washed again two times with 0.5% BSA/PBS/0.02% NaN3. Following the second wash, FACS analysis was performed.

[2] = target: T1, CXCR2; assay: as above
Description: as §1, §2, §3

[3] = target: Δ-X4; assay: as above
Description: as §1, §2, §3

[4] = target: T3, 2444b CXCR2/CXCR4 chimera (human, UniProt P25025 1-48; P61073 39-352, limits assumed); assay: as above
Description: as §1, §2, §3

[5] = target: 4442 CXCR2/CXCR4 chimera; assay: as above
Description: as §1, §2, §3

[6] = target: 2442 CXCR2/CXCR4 chimera; assay: as above
Description: as §1, §2, §3

[7] = target: 2242 CXCR2/CXCR4 chimera; assay: as above
Description: as §1, §2, §3

[8] = target: T4, rhesus macaque monkey CXCR4 (rhesus macaque, UniProt P79394 1-352); assay: as above
T4 construct: whole, on cells
Description: as §1, §2, §3

[9] = target: T5, mouse CXCR4 (mouse, UniProt P70658 1-359); assay: as above
T5 construct: whole, on cells; also called mice CXCR4
Description: as §1, §2, §3

[10] = target: T2, human CXCR4 (wild type); assay: FACS on 293T cells expressing CXCR4 variants
[11] = target: T3, 2444b CXCR2/CXCR4 chimera; assay: FACS on 293T cells expressing CXCR4 variants
[12] = target: 4442 CXCR2/CXCR4 chimera; assay: FACS on 293T cells expressing CXCR4 variants
[13] = target: 2442 CXCR2/CXCR4 chimera; assay: FACS on 293T cells expressing CXCR4 variants

T2 sequence (P61073 whole entry): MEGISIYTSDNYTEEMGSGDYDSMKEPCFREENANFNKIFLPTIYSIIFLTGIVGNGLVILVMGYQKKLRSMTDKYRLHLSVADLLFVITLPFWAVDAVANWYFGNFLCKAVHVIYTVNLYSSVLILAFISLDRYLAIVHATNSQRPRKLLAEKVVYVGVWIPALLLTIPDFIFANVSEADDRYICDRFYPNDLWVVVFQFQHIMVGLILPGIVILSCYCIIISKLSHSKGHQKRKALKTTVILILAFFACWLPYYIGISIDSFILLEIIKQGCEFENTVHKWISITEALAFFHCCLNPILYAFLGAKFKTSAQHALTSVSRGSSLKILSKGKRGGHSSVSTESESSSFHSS
T4 sequence (P79394 whole entry): as the sequence (P61073 whole entry) above, with M24I, N35H, K38R, R146K, N176S, V214D counted along it
T5 sequence (P70658 whole entry): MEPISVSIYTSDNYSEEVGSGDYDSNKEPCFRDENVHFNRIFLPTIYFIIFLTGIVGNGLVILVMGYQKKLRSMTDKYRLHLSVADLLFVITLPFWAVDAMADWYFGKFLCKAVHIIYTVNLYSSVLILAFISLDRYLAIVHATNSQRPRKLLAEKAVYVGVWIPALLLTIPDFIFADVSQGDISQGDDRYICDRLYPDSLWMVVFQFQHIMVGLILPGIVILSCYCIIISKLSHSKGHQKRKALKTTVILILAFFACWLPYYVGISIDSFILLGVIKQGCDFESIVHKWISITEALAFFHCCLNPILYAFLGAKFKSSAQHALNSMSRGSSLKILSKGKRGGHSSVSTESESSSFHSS

| Binder | reactivity (MFI of chimeric receptor/MFI of wild type CXCR4 x 100%) [1] | reactivity (MFI of chimeric receptor/MFI of wild type CXCR4 x 100%) [2] | reactivity (MFI of chimeric receptor/MFI of wild type CXCR4 x 100%) [3] | reactivity (MFI of chimeric receptor/MFI of wild type CXCR4 x 100%) [4] | reactivity (MFI of chimeric receptor/MFI of wild type CXCR4 x 100%) [5] | reactivity (MFI of chimeric receptor/MFI of wild type CXCR4 x 100%) [6] | reactivity (MFI of chimeric receptor/MFI of wild type CXCR4 x 100%) [7] | reactivity (MFI of chimeric receptor/MFI of wild type CXCR4 x 100%) [8] | reactivity (MFI of chimeric receptor/MFI of wild type CXCR4 x 100%) [9] | binding (+%) [10] | binding (+%) [11] | binding (+%) [12] | binding (+%) [13] |
| --- | --- | --- | --- | --- | --- | --- | --- | --- | --- | --- | --- | --- | --- |
| 18-Fc (Fc fusion, scFv-Fc fusion; also called X18; scFv-Fc 18) VH: QVQLVQSGAEVKKPGASVKVSCKASGYTFTSYGISWVRQAPGQGLEWMGWISAYNGNTNYAQKLQGRVTMTTDTSTSTAYMELRSLRSDDTAVYYCARDTPGIAARRYYYYGMDVWGQGTTVTVSS VL: SSELTQDPAVSVALGQTVRITCQGDSLRKFFASWYQQKPGQAPVLVIYGKNSRPSGIPDRFSGSNSRNTASLTITGAQAEDEGDYYCNSRDSRDNHQVFGAGTKVTVL | 100% | 2% | 48.1% | 28.5% | 35.2% | 37.8% | 10.1% | 89.1% | 13.1% |  |  |  |  |
| 19-Fc (Fc fusion, scFv-Fc fusion; also called X19; scFv-Fc 19) VH: QVQLVQSGGGVVQPGRSLRLSCAASGFTFSSYPMHWVRQAPGKGLEWMTVISSDGRNKYYPDSVKGRFTISRDNSKNTLYLQMNSLRPEDTAVYYCARGGYHDFWSGPDYWGQGTLVTVSS VL: EIVLTQSPATLSVSPGERATLSCRASQSVNTNLAWYQQKPGQAPRLLIYGASSRATGIPDRFSGSGSGTDFTLTISRLEPEDFAVYYCQHYGSSPLTFGGGTKLEIK | 100% | 7.5% | 11% | 8.5% | 5.3% | 7.1% | 5.2% | 35.1% | 5.6% |  |  |  |  |
| 33-IgG1 (antibody, V domains shown, Bivalent whole human IgG1, VH and VL subcloned into human IgG1 lambda light chain expression vector TCAE6; also called mAb 33) VH: QVTLKESGGGVVQPGRSLRLSCAASGFTFTNYGLHWVRQAPGKGLEWVAVISHDGTKKYYADSVKGRFTISRDSSENTLYLQMNSLRPEDSALYYCARDGGYCSGGRCYSYGMDVWGQGTTVTVSS VL: QSVLTQPPSASGTPGQRVTISCSGSRSNIGSNTVNWYQQLPGTAPKLLIYTNNQRPSGVPDRFSGSKSGTSASLAITGLQAEDEADYYCLSFDSSLTSYVFGTGTKVTVLG |  |  |  |  |  |  |  |  |  | 100% | 1% | 99.5% | 1.5% |
| 48-IgG1 (antibody, V domains shown, Bivalent whole human IgG1, VH and VL subcloned into human IgG1 lambda light chain expression vector TCAE6; also called mAb 48) VH: QVQLVQSGGGVVLPGRSLRLSCVASGFTFRRYGMHWVRQAPGKGLEWVSLISYDGSKTFYGESVKGRFTISRDNSKNTLYLQMNSLRAEDTAVYYCARATVTTDGYYYMDVWGKGTTVTVSS VL: not shown |  |  |  |  |  |  |  |  |  | 100% | -2.3% | 91.9% | -2.9% |
